Test results reported in patent US11994512B2, “Single-cell genomic methods to generate ex vivo cell systems that recapitulate in vivo biology with improved fidelity” (Massachusetts Institute of Technology, priority 2018, dated 2024).

System: intracellular proteome of ENR+CD and ENR organoids
Test: LC-MS/MS TMT proteomics of ENR+CD versus ENR organoids
Assay type: cell-based, C57BL/6 mice
Settings: for Average logFC: ENR+CD versus ENR organoids, sample pairs in aggregate (n=4, 2 technical replicates from two biological donors); for M1-1 Log2 Median Normalized / M1-2 Log2 Median Normalized / M2-1 Log2 Median Normalized / M2-2 Log2 Median Normalized: protein abundance ratio ENR+CD versus ENR organoids, LC-MS/MS TMT proteomics; for M1-1 Log2 Median Normalized: sample pair M1-1; for M1-2 Log2 Median Normalized: sample pair M1-2; for M2-1 Log2 Median Normalized: sample pair M2-1; for M2-2 Log2 Median Normalized: sample pair M2-2; for change: up = enriched in ENR+CD, down = enriched in ENR, FDR<0.05 and log fold change cut-off

B1: Q9CXS4 (protein, UniProt Q9CXS4 1-252, looked up)
chain: MRRTRSAVATGPREQRRSGATGGLSGGESRAQRSRSRTRAGAGGGGGAVGPQPSAKPRPKPPPRAQEAAAEEPPPAVTPAASVSALDLGEQRERWETFQKRQRLSFEGAAKLLLDTFEYQGLVKHTGGCHCGAVRFEVWASADLHIFDCNCSICKKKQNRHFIVPASRFKLLKGAESITTYTFNTHKAQHTFCKRCGVQSFYTPRSNPGGFGIAPHCLDEGTVRSVVTEEFNGSDWERAMKEHKTIKNMSKE
modifications: full-length
For B1, the “Average logFC” value was −1.1404, the “M1-1 Log2 Median Normalized” value was −1.106 and the “M1-2 Log2 Median Normalized” value was −1.141. The “M2-1 Log2 Median Normalized” value was −0.9445, the “M2-2 Log2 Median Normalized” value was −1.649 and the change was “down”.

B2: Q9CZT6 (protein, UniProt Q9CZT6 1-276, looked up)
chain: MADDLGDEWWENQPAAASSPEQSGGEEGGDTEMTQQDTAPVPEKTQQPTECFLTQTKEPKAEDSRKTRKWKKKKISDILAKSEPKPGTPEDLQKLIRDHYSSSRSVIELEELHLPDSCFLKANDLTHSLSSYLKEICPKWVKLRKTHNEKKSVLMLILCSSAVRALELIRSLTAFKGDAKVMKLFAKHIKVQEQVKLLEKRVIHLGVGTPGRIKELVKQDGLHLNPLKFLVFDWNWRDQKLRRMMDIPEIRKEVFELLDMGVFSLCKSDSLKLGLF
modifications: full-length
With B2 the “Average logFC” value was −1.131, the “M1-1 Log2 Median Normalized” value was −1.275 and the “M1-2 Log2 Median Normalized” value was −0.965. For the same molecule, the “M2-1 Log2 Median Normalized” value was −0.8705, the “M2-2 Log2 Median Normalized” value was −1.413 and the change was “down”.

B3: Q9D6F4 (protein, UniProt Q9D6F4 1-552, looked up)
chain: MVSVQKVPAIALCSGVSLALLHFLCLAACLNESPGQNSKDEKLCPENFTRILDSLLDGYDNRLRPGFGGPVTEVKTDIYVTSFGPVSDVEMEYTMDVFFRQTWIDKRLKYDGPIEILRLNNMMVTKVWTPDTFFRNGKKSVSHNMTAPNKLFRIMRNGTILYTMRLTISAECPMRLVDFPMDGHACPLKFGSYAYPKSEMIYTWTKGPEKSVEVPKESSSLVQYDLIGQTVSSETIKSITGEYIVMTVYFHLRRKMGYFMIQTYIPCIMTVILSQVSFWINKESVPARTVFGITTVLTMTTLSISARHSLPKVSYATAMDWFIAVCFAFVFSALIEFAAVNYFTNIQMQKAKKKISKPPPEVPAAPVLKEKHTETSLQNTHANLNMRKRTNALVHSESDVKSRTEVGNHSSKTSAVQESSEATPKAHLASSPNPFSRANAAETMSAAARGLSSAASPSPHGTLRPASLGSASTRPAFGSRLGRIKTTVNTTGAAGNVSATPPPPAPPPSGSGTSKIDKYARILFPVTFGAFNMVYWVVYLSKDTMEKSESLM
modifications: full-length
B3 was tested, and the “Average logFC” value was 1.263, the “M1-1 Log2 Median Normalized” value was 0.695 and the “M1-2 Log2 Median Normalized” value was 0.98. The “M2-1 Log2 Median Normalized” value was 1.4175, the “M2-2 Log2 Median Normalized” value was 1.959 and the change was “up”.

B4: Q9D1C1 (protein, UniProt Q9D1C1 1-179, looked up)
chain: MASQNRDPAAASVAAVRKGAEPCGGAARGPVGKRLQQELMILMTSGDKGISAFPESDNLFKWVGTIHGAAGTVYEDLRYKLSLEFPSGYPYNAPTVKFLTPCYHPNVDTQGNICLDILKDKWSALYDVRTILLSIQSLLGEPNIDSPLNTHAAELWKNPTAFKKYLQETYSKQVSSQDP
modifications: full-length
With B4 the “Average logFC” value was −1.255, the “M1-1 Log2 Median Normalized” value was −1.316 and the “M1-2 Log2 Median Normalized” value was −0.925. For the same molecule, the “M2-1 Log2 Median Normalized” value was −1.1505, the “M2-2 Log2 Median Normalized” value was −1.63 and the change was “down”.

B5: Q9D009 (protein, UniProt Q9D009 1-231, looked up)
chain: MSLPVVRLVWLGRVHYSELLALQEHWLRRLQADPRPGTLSGTKAGVLLVCEPAGPVYTGGLRGGLTPEETTRLRALGAEVRATGRGGLATFHGPGQLLCHPVLDLRLLGLRLRTHVAALEACAVRLCELRGLQGARARPPPYTGVWLGERKICAIGVRCGRHITSHGLALNCSTDLTWFEHIVPCGLVGTGVTSLSEALQRLVTVDEVMPSFLVAFKETFKCTLISEDSPS
modifications: full-length
With B5 the “Average logFC” value was −2.176, the “M1-1 Log2 Median Normalized” value was −0.836 and the “M1-2 Log2 Median Normalized” value was −2.401. For the same molecule, the “M2-1 Log2 Median Normalized” value was −2.1745, the “M2-2 Log2 Median Normalized” value was −2.621 and the change was “down”.

B6: Q9D6X6 (protein, UniProt Q9D6X6 1-382, looked up)
chain: MAGIPGLFILLVLLCVFMQVSPYTVPWKPTWPAYRLPVVLPQSTLNLAKADFDAKAKLEVSSSCGPQCHKGTPLPTYEEAKQYLSYETLYANGSRTETRVGIYILSNGEGRARGRDSEATGRSRRKRQIYGYDGRFSIFGKDFLLNYPFSTSVKLSTGCTGTLVAEKHVLTAAHCIHDGKTYVKGTQKLRVGFLKPKYKDGAGGDNSSSSAMPDKMKFQWIRVKRTHVPKGWIKGNANDIGMDYDYALLELKKPHKRQFMKIGVSPPAKQLPGGRIHFSGYDNDRPGNLVYRFCDVKDETYDLLYQQCDAQPGASGSGVYVRMWKRPQQKWERKIIGIFSGHQWVDMNGSPQDFNVAVRITPLKYAQICYWIKGNYLDCREG
modifications: full-length
B6 was tested, and the “Average logFC” value was 1.179, the “M1-1 Log2 Median Normalized” value was 1.521 and the “M1-2 Log2 Median Normalized” value was 1.393. The “M2-1 Log2 Median Normalized” value was 0.7475, the “M2-2 Log2 Median Normalized” value was 1.055 and the change was “up”.

B7: Q9CXC3 (protein, UniProt Q9CXC3 1-338, looked up)
chain: MKLPLTFCRLLSRLNRFSVKASPPVSFSTFSYLCSQKKKNSYEAVDQAKYSRLVRSVLSRGPAQTPESLFKEDDVLYGPVSKHKAAEPEPQARVPQHCFPIFNEERTGKPHTDASSSPLKIPLQRNSIPSVTRILQQTMPPEQSFFLERWKERMVLELGEDGFAEYTSNVFLQGKQFHKALESILSPQENLTGGEEHPQCGYIESIQHILTEISGVQALESAVQHEALKYVGLLDCVAEYRGKLCVIDWKTSEKPKPLIRNTYDNPLQVVAYMGAVNHDAHYSFQVQCGLIVVAYKDGSPAHPHFMDEELCSKYWAKWLLRLEEYTEKQKNLSAPEPA
modifications: full-length
B7 was tested, and the “Average logFC” value was −1.487, the “M1-1 Log2 Median Normalized” value was −1.486 and the “M1-2 Log2 Median Normalized” value was −0.854. The “M2-1 Log2 Median Normalized” value was −1.7905, the “M2-2 Log2 Median Normalized” value was −1.7 and the change was “down”.

B8: Q9D3P9 (protein, UniProt Q9D3P9 1-169, looked up)
chain: MRGMNLQLVCLTLLAFSSWSLCSDSEEDVRALEADLLTNMHTSKISKASPPSWKMTLLNVCSLINNVNSPAEEAGDMHDDDLVGKRKLPLVLDGFSLEAMLTIFQLQKICRSRAFQHWEIIQEDILDNVNDKNEKEEVIKRKIPYILKRQLYENKPRRPYILKRGSYYY
modifications: full-length
For B8, the “Average logFC” value was 1.285, the “M1-1 Log2 Median Normalized” value was 1.731 and the “M1-2 Log2 Median Normalized” value was 0.439. For the same molecule, the “M2-1 Log2 Median Normalized” value was 0.8595, the “M2-2 Log2 Median Normalized” value was 2.111 and the change was “up”.
